Results reported in patent US10919943B2, “Mutant proteins enabling agrochemical control of plant gene expression” (The Regents of the University of California, priority 2016, dated 2021).
Residue numbers refer to the chain shown, from its start. In names and notes the source's numbering stands.

T1: PYR1 (Arabidopsis thaliana, UniProt O49686)
T1 construct: expressed in transfected cells; host or cells: S. cerevisiae strain Y190
T1 sequence (O49686 1-191): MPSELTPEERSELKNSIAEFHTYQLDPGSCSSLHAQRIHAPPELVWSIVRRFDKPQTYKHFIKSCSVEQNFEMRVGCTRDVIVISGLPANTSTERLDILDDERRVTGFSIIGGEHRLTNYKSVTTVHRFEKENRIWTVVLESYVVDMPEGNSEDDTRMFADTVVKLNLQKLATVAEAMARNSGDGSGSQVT

B1: R389F: HAB1 mutant (protein, UniProt Q9CAJ0 23-511, looked up, variant R389F)
Protein phosphatase 2C 16: SPVEITQLKNVTDAADLLSDSENQSFCNGGTECTMEDVSELEEVGEQDLLKTLSDTRSGSSNVFDEDDVLSVVEDNSAVISEGLLVVDAGSELSLSNTAMEIDNGRVLATAIIVGESSIEQVPTAEVLIAGVNQDTNTSEVVIRLPDENSNHLVKGRSVYELDCIPLWGTVSIQGNRSEMEDAFAVSPHFLKLPIKMLMGDHEGMSPSLTHLTGHFFGVYDGHGGHKVADYCRDRLHFALAEEIERIKDELCKRNTGEGRQVQWDKVFTSCFLTVDGEIEGKIGRAVVGSSDKVLEAVASETVGSTAVVALVCSSHIVVSNCGDSRAVLFRGKEAMPLSVDHKPDREDEYARIENAGGKVIQWQGAFVFGVLAMSRSIGDRYLKPYVIPEPEVTFMPRSREDECLILASDGLWDVMNNQEVCEIARRRILMWHKKNGAPPLAERGKGIDPACQAAADYLSMLALQKGSKDNISIIVIDLKAQRKFKTRT
B2: G392R: HAB1 mutant (protein, UniProt Q9CAJ0 23-511, looked up, variant G392R)
Protein phosphatase 2C 16: B1 Protein phosphatase 2C 16 with F367R, G370R
B3: F391E: HAB1 mutant (protein, UniProt Q9CAJ0 23-511, looked up, variant F391E)
Protein phosphatase 2C 16: B1 Protein phosphatase 2C 16 with F367R, F369E
B4: R389G: HAB1 mutant (protein, UniProt Q9CAJ0 23-511, looked up, variant R389G)
Protein phosphatase 2C 16: B1 Protein phosphatase 2C 16 with F367G
B5: G392F: HAB1 mutant (protein, UniProt Q9CAJ0 23-511, looked up, variant G392F)
Protein phosphatase 2C 16: B1 Protein phosphatase 2C 16 with F367R, G370F
B6: G392E: HAB1 mutant (protein, UniProt Q9CAJ0 23-511, looked up, variant G392E)
Protein phosphatase 2C 16: B1 Protein phosphatase 2C 16 with F367R, G370E
B7: G392M: HAB1 mutant (protein, UniProt Q9CAJ0 23-511, looked up, variant G392M)
Protein phosphatase 2C 16: B1 Protein phosphatase 2C 16 with F367R, G370M
B8: F391D: HAB1 mutant (protein, UniProt Q9CAJ0 23-511, looked up, variant F391D)
Protein phosphatase 2C 16: B1 Protein phosphatase 2C 16 with F367R, F369D
B9: G392I: HAB1 mutant (protein, UniProt Q9CAJ0 23-511, looked up, variant G392I)
Protein phosphatase 2C 16: B1 Protein phosphatase 2C 16 with F367R, G370I
B10: G392A: HAB1 mutant (protein, UniProt Q9CAJ0 23-511, looked up, variant G392A)
Protein phosphatase 2C 16: B1 Protein phosphatase 2C 16 with F367R, G370A
B11: G392T: HAB1 mutant (protein, UniProt Q9CAJ0 23-511, looked up, variant G392T)
Protein phosphatase 2C 16: B1 Protein phosphatase 2C 16 with F367R, G370T
B12: Y404T: HAB1 mutant (protein, UniProt Q9CAJ0 23-511, looked up, variant Y404T)
Protein phosphatase 2C 16: B1 Protein phosphatase 2C 16 with F367R, Y382T
B13: G392C: HAB1 mutant (protein, UniProt Q9CAJ0 23-511, looked up, variant G392C)
Protein phosphatase 2C 16: B1 Protein phosphatase 2C 16 with F367R, G370C
B14: G392P: HAB1 mutant (protein, UniProt Q9CAJ0 23-511, looked up, variant G392P)
Protein phosphatase 2C 16: B1 Protein phosphatase 2C 16 with F367R, G370P
B15: G392Q: HAB1 mutant (protein, UniProt Q9CAJ0 23-511, looked up, variant G392Q)
Protein phosphatase 2C 16: B1 Protein phosphatase 2C 16 with F367R, G370Q
B16: G392V: HAB1 mutant (protein, UniProt Q9CAJ0 23-511, looked up, variant G392V)
Protein phosphatase 2C 16: B1 Protein phosphatase 2C 16 with F367R, G370V
B17: G392Y: HAB1 mutant (protein, UniProt Q9CAJ0 23-511, looked up, variant G392Y)
Protein phosphatase 2C 16: B1 Protein phosphatase 2C 16 with F367R, G370Y
B18: Y404Q: HAB1 mutant (protein, UniProt Q9CAJ0 23-511, looked up, variant Y404Q)
Protein phosphatase 2C 16: B1 Protein phosphatase 2C 16 with F367R, Y382Q
B19: G392D: HAB1 mutant (protein, UniProt Q9CAJ0 23-511, looked up, variant G392D)
Protein phosphatase 2C 16: B1 Protein phosphatase 2C 16 with F367R, G370D
B20: Y404S: HAB1 mutant (protein, UniProt Q9CAJ0 23-511, looked up, variant Y404S)
Protein phosphatase 2C 16: B1 Protein phosphatase 2C 16 with F367R, Y382S
B21: F391P: HAB1 mutant (protein, UniProt Q9CAJ0 23-511, looked up, variant F391P)
Protein phosphatase 2C 16: B1 Protein phosphatase 2C 16 with F367R, F369P
B22: Y404P: HAB1 mutant (protein, UniProt Q9CAJ0 23-511, looked up, variant Y404P)
Protein phosphatase 2C 16: B1 Protein phosphatase 2C 16 with F367R, Y382P
B23: R389K: HAB1 mutant (protein, UniProt Q9CAJ0 23-511, looked up, variant R389K)
Protein phosphatase 2C 16: B1 Protein phosphatase 2C 16 with F367K
B24: Y404R: HAB1 mutant (protein, UniProt Q9CAJ0 23-511, looked up, variant Y404R)
Protein phosphatase 2C 16: B1 Protein phosphatase 2C 16 with F367R, Y382R
B25: R389H: HAB1 mutant (protein, UniProt Q9CAJ0 23-511, looked up, variant R389H)
Protein phosphatase 2C 16: B1 Protein phosphatase 2C 16 with F367H
B26: G392H: HAB1 mutant (protein, UniProt Q9CAJ0 23-511, looked up, variant G392H)
Protein phosphatase 2C 16: B1 Protein phosphatase 2C 16 with F367R, G370H
B27: R389I: HAB1 mutant (protein, UniProt Q9CAJ0 23-511, looked up, variant R389I)
Protein phosphatase 2C 16: B1 Protein phosphatase 2C 16 with F367I
B28: G392K: HAB1 mutant (protein, UniProt Q9CAJ0 23-511, looked up, variant G392K)
Protein phosphatase 2C 16: B1 Protein phosphatase 2C 16 with F367R, G370K
B29: G392W: HAB1 mutant (protein, UniProt Q9CAJ0 23-511, looked up, variant G392W)
Protein phosphatase 2C 16: B1 Protein phosphatase 2C 16 with F367R, G370W
B30: G392N: HAB1 mutant (protein, UniProt Q9CAJ0 23-511, looked up, variant G392N)
Protein phosphatase 2C 16: B1 Protein phosphatase 2C 16 with F367R, G370N
B31: G392L: HAB1 mutant (protein, UniProt Q9CAJ0 23-511, looked up, variant G392L)
Protein phosphatase 2C 16: B1 Protein phosphatase 2C 16 with F367R, G370L
B32: Y404N: HAB1 mutant (protein, UniProt Q9CAJ0 23-511, looked up, variant Y404N)
Protein phosphatase 2C 16: B1 Protein phosphatase 2C 16 with F367R, Y382N
B33: V393Q: HAB1 mutant (protein, listed as Arabidopsis thaliana)
chain: MEEMTPAVAMTLSLAANTMCESSPVEITQLKNVTDAADLLSDSENQSFCNGGTECTMEDVSELEEVGEQDLLKTLSDTRSGSSNVFDEDDVLSVVEDNSAVISEGLLVVDAGSELSLSNTAMEIDNGRVLATAIIVGESSIEQVPTAEVLIAGVNQDTNTSEVVIRLPDENSNHLVKGRSVYELDCIPLWGTVSIQGNRSEMEDAFAVSPHFLKLPIKMLMGDHEGMSPSLTHLTGHFFGVYDGHGGHKVADYCRDRLHFALAEEIERIKDELCKRNTGEGRQVQWDKVFTSCFLTVDGEIEGKIGRAVVGSSDKVLEAVASETVGSTAVVALVCSSHIVVSNCGDSRAVLFRGKEAMPLSVDHKPDREDEYARIENAGGKVIQWQGARVFGQLAMSRSIGDRYLKPYVIPEPEVTFMPRSREDECLILASDGLWDVMNNQEVCEIARRRILMWHKKNGAPPLAERGKGIDPACQAAADYLSMLALQKGSKDNISIIVIDLKAQRKFKTRT
B34: V393K: HAB1 mutant (protein, listed as Arabidopsis thaliana)
chain: B33 chain with Q393K
B35: V393R: HAB1 mutant V393R, denoted HAB1^! (protein, listed as Arabidopsis thaliana)
chain: B33 chain with Q393R

Each molecule was assayed against T1, PYR1 (assay: Yeast two hybrid of pACT-HAB1 site saturation mutants with pBD-PYR1 on 10 μM ABA, β-galactosidase staining). Details: S. cerevisiae Y190, 10 μM ABA; dead = lack of detectable staining in comparison to wild type control.
Assay type: cell-based
Parameters: key: x: Mutations in HAB1 that disrupt HAB1 interaction with PYR1
Outline: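 Read-out is β-galactosidase staining of chloroform-lysed Y190 colonies grown 2 days at 30 °C on SD (-Leu,-Trp) plus 10 μM ABA. Each pACT-HAB1 single-substitution mutant (N-terminally truncated by three residues) was paired with pBD-PYR1; absence of detectable staining relative to wild type scored as dead.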

Row | Mutations in HAB1 that disrupt HAB1 interaction with PYR1 | Molecule
1 | x | B1
2 | x | B2
3 | x | B3
4 | x | B4
5 | x | B5
6 | x | B6
7 | x | B7
8 | x | B8
9 | x | B9
10 | x | B10
11 | x | B11
12 | x | B12
13 | x | B13
14 | x | B14
15 | x | B15
16 | x | B16
17 | x | B17
18 | x | B18

Row | Mutations in HAB1 that disrupt HAB1 interaction with PYR1 | Molecule
19 | x | B19
20 | x | B20
21 | x | B21
22 | x | B22
23 | x | B23
24 | x | B24
25 | x | B25
26 | x | B26
27 | x | B27
28 | x | B28
29 | x | B29
30 | x | B30
31 | x | B31
32 | x | B32
33 | x | B33
34 | x | B34
35 | x | B35
